Laboratory results from article PMC9366794 (ACS Omega, 2022).
Ends that are not written are not given here.

Legend:
male mice = conditions: icv, 5 μg, at 4, 6, and 24 h; cited from earlier work
[1] = system: wildtype, MC4R KO, and MC3R KO mice; conditions: significant out to at least 7 days post-administration; cited from earlier work
[2] = biological target: mouse melanocortin-5 receptor (mouse) (UniProt P41149)
[3] = biological target: mouse melanocortin-1 receptor (mouse) (UniProt Q01727)
[4] = biological target: mouse melanocortin-3 receptor (mouse) (UniProt P33033)
MC4R KO mice = MC4R KO mice (intact MC3R); cited from earlier work
[5] = biological target: mouse melanocortin-4 receptor (mouse) (UniProt P56450)
Chain of UniProt P56450 (P56450 whole entry): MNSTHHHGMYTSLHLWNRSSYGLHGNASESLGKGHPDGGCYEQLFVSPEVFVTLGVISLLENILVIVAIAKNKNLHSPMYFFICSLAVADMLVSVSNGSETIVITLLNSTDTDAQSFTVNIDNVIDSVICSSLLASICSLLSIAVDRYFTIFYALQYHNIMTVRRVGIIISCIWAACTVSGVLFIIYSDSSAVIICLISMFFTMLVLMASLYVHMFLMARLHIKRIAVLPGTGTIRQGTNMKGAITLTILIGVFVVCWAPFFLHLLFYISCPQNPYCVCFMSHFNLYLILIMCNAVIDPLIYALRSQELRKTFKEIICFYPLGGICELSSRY

Chain of UniProt P41149 (P41149 whole entry): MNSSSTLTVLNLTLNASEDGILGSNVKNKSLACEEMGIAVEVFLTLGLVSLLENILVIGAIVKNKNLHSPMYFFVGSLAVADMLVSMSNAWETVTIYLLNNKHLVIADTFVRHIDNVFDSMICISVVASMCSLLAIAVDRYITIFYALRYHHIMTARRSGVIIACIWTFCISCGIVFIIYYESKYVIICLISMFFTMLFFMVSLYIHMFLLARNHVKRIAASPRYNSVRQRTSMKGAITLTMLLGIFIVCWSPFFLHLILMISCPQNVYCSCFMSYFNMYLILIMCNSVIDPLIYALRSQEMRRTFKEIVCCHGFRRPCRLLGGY
Chain of UniProt Q01727 (Q01727 whole entry): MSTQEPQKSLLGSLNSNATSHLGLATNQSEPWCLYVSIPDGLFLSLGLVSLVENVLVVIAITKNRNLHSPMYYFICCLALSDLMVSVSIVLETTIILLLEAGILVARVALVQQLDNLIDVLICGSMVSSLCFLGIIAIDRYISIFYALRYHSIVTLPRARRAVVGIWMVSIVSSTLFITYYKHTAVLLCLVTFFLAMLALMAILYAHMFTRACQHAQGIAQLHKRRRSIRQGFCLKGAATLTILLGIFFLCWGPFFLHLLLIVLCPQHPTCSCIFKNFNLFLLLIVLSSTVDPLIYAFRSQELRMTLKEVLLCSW
Chain of UniProt P33033 (P33033 whole entry): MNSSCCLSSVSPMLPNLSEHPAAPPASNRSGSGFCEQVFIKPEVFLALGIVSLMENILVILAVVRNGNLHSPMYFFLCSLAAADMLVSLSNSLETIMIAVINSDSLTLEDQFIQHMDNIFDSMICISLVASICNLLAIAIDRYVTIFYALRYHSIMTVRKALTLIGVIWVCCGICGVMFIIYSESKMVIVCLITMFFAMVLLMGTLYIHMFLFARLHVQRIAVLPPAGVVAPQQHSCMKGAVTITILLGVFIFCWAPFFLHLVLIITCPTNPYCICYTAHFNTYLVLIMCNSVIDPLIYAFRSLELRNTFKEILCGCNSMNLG

Row | agonist EC50, cAMP AlphaScreen, HEK293 cells stably expressing mMC5R [2] | agonist EC50, cAMP AlphaScreen, HEK293 cells stably expressing mMC1R [3] | agonist EC50, cAMP AlphaScreen, HEK293 cells stably expressing mMC3R [4] | Molecule | other results
1 | – | – | – | CC(=O)N[C@@H](CCCNC(=N)N)C(=O)N[C@@H](CCCNC(=N)N)C(=O)N[C@H](Cc1ccc(I)cc1)C(=O)N1Cc2ccccc2C[C@H]1C(N)=O [compound 1, Ac-Arg-Arg-(pI)DPhe-Tic-NH2] | food intake versus artificial cerebrospinal fluid vehicle (male mice): statistically significant increase in food intake
2 | – | – | – | AGRP: naturally occurring MC3R/MC4R antagonist agouti-related protein (SSRRCVRLHESCLGQQVPCCDPCATCYCRFFNAFCYCRKLGTAMNPCSRT; ends and bridges not checked; cysteine pairing not given here; UniProt O00253 83-132, looked up) | food intake compared to saline injection [1]: dose-dependent increase in food intake
3 | 7 nM | 0.18 nM | 10 nM | Ac-Arg-Arg-(pI)DPhe-Tic-NH2 (peptide) | –
4 | 240 nM | 380 nM | 570 nM | Ac-Arg-Arg-(pI)DPhe-Wrf-NH2 (peptide) | –
5 | 650 nM | 210 nM | – | Ac-Arg-Arg-(pI)DPhe-wsf-NH2 (peptide) | –
6 | 350 nM | – | – | Ac-Arg-Arg-wsf-Tic-NH2 (peptide) | –
7 | – | – | – | Ac-His-DPhe-Arg-Trp-NH2 | food intake in MC4R KO mice (MC4R KO mice): decrease in food intake
8 | – | – | – | MTII | food intake in MC4R KO mice (MC4R KO mice): decrease in food intake
9 | 0.26 nM | 0.013 nM | 0.16 nM | NDP-MSH (peptide) | agonist EC50, cAMP AlphaScreen, HEK293 cells stably expressing mMC4R [5]: 0.68 nM
